Assay results taken from US20160168209A1.
One block for each substance: values may come before it.

Columns and labels:
[1] = target: Gamma globulin (Nichiyaku), used as a human IgG (human); assay: affinity chromatography, dynamic binding capacity at 5% breakthrough; ligand on cross-linked cellulose beads at 11.6 mg/mL-gel
[2] = target: human immunoglobulin G preparation separated from human plasma (Gammagard, Baxter) (human); assay: SPR (Biacore 3000), human IgG on CM5 chip, ligand flowed at 16-128 nM, 1:1 fit, 25 C
[3] = target: Gamma globulin (Nichiyaku), used as a human IgG (human); assay: affinity chromatography, dynamic binding capacity at 5% breakthrough; ligand on HiTrap NHS agarose at 8.8 mg/mL-gel
[4] = target: Gamma globulin (Nichiyaku), used as a human IgG (human); assay: affinity chromatography, dynamic binding capacity at 5% breakthrough; ligand on HiTrap NHS agarose at 10.9 mg/mL-gel
[5] = target: Gamma globulin (Nichiyaku), used as a human IgG (human); assay: affinity chromatography, dynamic binding capacity at 5% breakthrough; ligand on HiTrap NHS agarose at 5.7 mg/mL-gel
[6] = target: Gamma globulin (Nichiyaku), used as a human IgG (human); assay: affinity chromatography, dynamic binding capacity at 5% breakthrough; ligand on HiTrap NHS agarose at 6.9 mg/mL-gel
[7] = target: Gamma globulin (Nichiyaku), used as a human IgG (human); assay: affinity chromatography, dynamic binding capacity at 5% breakthrough; ligand on HiTrap NHS agarose at 13.5 mg/mL-gel
[8] = target: Gamma globulin (Nichiyaku), used as a human IgG (human); assay: affinity chromatography, dynamic binding capacity at 5% breakthrough; ligand on HiTrap NHS agarose at 9.4 mg/mL-gel
[9] = target: Gamma globulin (Nichiyaku), used as a human IgG (human); assay: affinity chromatography, dynamic binding capacity at 5% breakthrough; ligand on HiTrap NHS agarose at 4.8 mg/mL-gel
[10] = target: Gamma globulin (Nichiyaku), used as a human IgG (human); assay: affinity chromatography, dynamic binding capacity at 5% breakthrough; ligand on HiTrap NHS agarose at 6.4 mg/mL-gel
[11] = target: Gamma globulin (Nichiyaku), used as a human IgG (human); assay: affinity chromatography, dynamic binding capacity at 5% breakthrough; ligand on cross-linked cellulose beads at 11.0 mg/mL-gel
[12] = target: Gamma globulin (Nichiyaku), used as a human IgG (human); assay: affinity chromatography, dynamic binding capacity at 5% breakthrough; ligand on HiTrap NHS agarose at 9.5 mg/mL-gel
[13] = target: Gamma globulin (Nichiyaku), used as a human IgG (human); assay: affinity chromatography, dynamic binding capacity at 5% breakthrough; ligand on HiTrap NHS agarose at 12.5 mg/mL-gel
[14] = target: Gamma globulin (Nichiyaku), used as a human IgG (human); assay: affinity chromatography, dynamic binding capacity at 5% breakthrough; ligand on HiTrap NHS agarose at 9.0 mg/mL-gel
[15] = target: Gamma globulin (Nichiyaku), used as a human IgG (human); assay: affinity chromatography, dynamic binding capacity at 5% breakthrough; ligand on HiTrap NHS agarose at 5.1 mg/mL-gel
[16] = target: human immunoglobulin G preparation separated from human plasma (Gammagard, Baxter) (human); assay: SPR (Biacore 3000), human IgG on CM5 chip, as in Example 3
[17] = target: Gamma globulin (Nichiyaku), used as a human IgG (human); assay: affinity chromatography, dynamic binding capacity at 5% breakthrough; ligand on HiTrap NHS agarose at 14.1 mg/mL-gel
[18] = target: Gamma globulin (Nichiyaku), used as a human IgG (human); assay: affinity chromatography, dynamic binding capacity at 5% breakthrough; ligand on HiTrap NHS agarose at 6.8 mg/mL-gel

Substance: C-K04R/K07R/G29A/S33R/K35R/K42R/K49Q/K50R(C-terminal K58R).4d (designed binder)
5% antibody dBC [6]: 41.8 mg/mL-gel
Ka [2]: 1.1e+09 M⁻¹
5% antibody dBC [7]: 62.1 mg/mL-gel

Substance: C-K04R/K07R/G29A/S33L/K35R/K42R/K49R/K50R.3d (designed binder)
Ka [2]: 2.1e+09 M⁻¹
5% antibody dBC [8]: 73.4 mg/mL-gel
5% antibody dBC [9]: 56.5 mg/mL-gel

Substance: C-K04R/K07R/G29A/S33L/K35R/K42R/K49R/K50R/(K58R except for C-terminal).3d (designed binder)
5% antibody dBC [14]: 66.2 mg/mL-gel
5% antibody dBC [15]: 49.1 mg/mL-gel
Ka [16]: 2.2e+09 M⁻¹

Second part, the substance after the results:

5% antibody dBC [1]: 36.8 mg/mL-gel
Ka [2]: 6.3e+09 M⁻¹
5% antibody dBC [3]: 50.3 mg/mL-gel
5% antibody dBC [4]: 54.4 mg/mL-gel
5% antibody dBC [5]: 38.3 mg/mL-gel
Substance: C-G29A/S33E.5d (designed binder)

5% antibody dBC [10]: 45.8 mg/mL-gel
5% antibody dBC [11]: 46.1 mg/mL-gel
Ka [2]: 1.5e+09 M⁻¹
5% antibody dBC [12]: 55.3 mg/mL-gel
5% antibody dBC [13]: 61.3 mg/mL-gel
Substance: C-K04R/K07R/G29A/S33R/K35R/K42R/K49Q/K50R.5d (designed binder)

Ka [2]: 1e+09 M⁻¹
5% antibody dBC [17]: 62.1 mg/mL-gel
5% antibody dBC [18]: 42.6 mg/mL-gel
Substance: C-K04R/K07R/G29A/S33R/K35R/K42R/K49Q/K50R.4d (designed binder)
